In patent publication US20170073408A1 (Amgen, published 2017):

T1: BMP4 (UniProt P12644 293-408)
T1 construct: Bought
T1 sequence (looked up): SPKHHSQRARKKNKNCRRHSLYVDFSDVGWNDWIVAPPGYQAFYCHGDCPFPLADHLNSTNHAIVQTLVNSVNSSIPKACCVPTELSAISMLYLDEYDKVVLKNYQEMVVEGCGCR

T2: GDF-8 (UniProt O14793 267-375)
T2 construct: Bought
T2 sequence (looked up): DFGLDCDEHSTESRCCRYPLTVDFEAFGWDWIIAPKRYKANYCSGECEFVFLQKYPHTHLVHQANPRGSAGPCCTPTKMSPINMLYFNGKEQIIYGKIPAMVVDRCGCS

T3: GDF-11 (UniProt O95390 299-407)
T3 construct: Bought
T3 sequence (looked up): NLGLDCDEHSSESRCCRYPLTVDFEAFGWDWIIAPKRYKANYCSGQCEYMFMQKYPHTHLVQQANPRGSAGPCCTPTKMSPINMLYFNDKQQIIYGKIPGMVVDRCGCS

T4: TGF-β-3 (UniProt P10600 301-412)
T4 construct: Bought
T4 sequence (looked up): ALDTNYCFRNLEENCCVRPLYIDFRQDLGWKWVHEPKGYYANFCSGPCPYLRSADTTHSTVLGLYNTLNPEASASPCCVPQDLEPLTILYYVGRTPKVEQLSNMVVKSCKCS

T5: activin B (UniProt P09529 293-407)
T5 construct: Bought (R & D Systems)
T5 sequence (looked up): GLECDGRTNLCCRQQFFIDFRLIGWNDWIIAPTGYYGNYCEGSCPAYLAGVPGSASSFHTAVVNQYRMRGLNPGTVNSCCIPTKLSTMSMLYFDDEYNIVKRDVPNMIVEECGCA

T6: A/B13-39
T6 construct: also called Activin A 13/39 B
T6 activin A/B chimeric subunit: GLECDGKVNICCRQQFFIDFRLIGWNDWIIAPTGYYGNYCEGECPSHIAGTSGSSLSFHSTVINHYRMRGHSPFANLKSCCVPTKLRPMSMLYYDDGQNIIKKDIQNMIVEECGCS

B1: anti-activin A monoclonal antibody A1 (antibody, human IgG2, lambda, V domains shown)
VH: QVQLVQSGAEVKKPGASVKVSCKASGYTFTSYGLSWVRQAPGQGLEWMGWIIPYNGNTNSAQKLQGRVTMTTDTSTSTAYMELRSLRSDDTAVYFCARDRDYGVNYDAFDIWGQGTMVTVSS
VL: not shown
notes: Fully human antibody from XenoMouse hybridoma (strains giving IgG2 kappa or IgG4 kappa); also called L1H1; Mab A1
B2: recombinant human activin A (mature) (ligand)
chain: GLECDGKVNICCKKQFFVSFKDIGWNDWIIAPSGYHANYCEGECPSHIAGTSGSSLSFHSTVINHYRMRGHSPFANLKSCCVPTKLRPMSMLYYDDGQNIIKKDIQNMIVEECGCS
notes: also called r-HuActivin A; rhActivin A

How the values were obtained:
[1] = molecular target: B2; test: cell-based or functional assay
BMP4 = molecular target: T1, BMP4; test: BIAcore, antibody pre-incubated with ligand, ActRIIB/Fc on chip
Experimental: (§1) These assays were performed using BlAcore® technology, to determine the selectivity of binding of antibodies A1, A2 and A3 to various activins and other TGF-β family members, including activin A, activin B, activin AB, inhibin A, GDF-8, GDF-11, TGF-β-1, TGF-β-3, and BMP4 (all from R & D Systems). […] Because BlAcore assays detect changes in the refractive index, the difference between the response detected with injection over the immobilized receptor surfaces compared with the response detected with injection over the control surface in the absence of any antibody represents the actual binding of the various ligands to the receptor. With pre-incubation of antibodies and activin and TGF-β molecules, a change (increase or decrease) in binding response indicates antibody binding to the TGFβ family of molecules. The antibodies all bound to activin A but not to activin B, GDF-8, GDF-11, TGF-β-1, TGF-β-3, and BMP4, thus indicating specificity for activin A.

GDF-8 = molecular target: T2, GDF-8; test: as above
Experimental: as §1

GDF-11 = molecular target: T3, GDF-11; test: as above
Experimental: as §1

TGF-β-1 = molecular target: T7, TGF-β-1 (UniProt P01137 279-390); test: as above
T7 construct: Bought
Experimental: as §1

TGF-β-3 = molecular target: T4, TGF-β-3; test: as above
Experimental: as §1

activin B = molecular target: T5, activin B; test: affinity analysis of Example 15 (antibody immobilized on a surface)
[2] = molecular target: B2; test: affinity analysis of Example 15 (method of the KD not given)
[3] = molecular target: B2; test: BIAcore blocking assay, 1 nM activin A; competitor rhActivin RIB/Fc chimera on chip
Experimental: (§2) Blocking assays were conducted on immobilized recombinant human activin RIB-Fc chimera surfaces, recombinant human activin RIIB-Fc chimera surfaces, and recombinant human RIIA-Fc chimera recombinant surfaces, as described in Example 5. Monoclonal antibodies A1, A2, AKA1, and AKA2 on each chimera surface were incubated with 1 nM activin A, and the relative binding response (%) was measured.

[4] = molecular target: B2; test: BIAcore blocking assay, 1 nM activin A; competitor rhActivin RIIA/Fc chimera on chip
Experimental: as §2

[5] = molecular target: B2; test: BIAcore blocking assay, 1 nM activin A; competitor rhActivin RIIB/Fc chimera on chip
Experimental: as §2

A/B13-39 = molecular target: T6, A/B13-39; test: Biacore blocking: 100 nM antibody + diluted conditioned medium (CM) of the ligand over ActRIB-Fc surface
[6] = molecular target: B2; test: Biacore blocking: 1 nM Activin A + antibody over rhActRIB-Fc chimera surface. No unit in the drawn table; M by Table 7, which prints this value rounded as 0.29 nM
A31-2 [7] = molecular target: T8, A31-2; test: KinExA solution equilibrium, antibody A31 fixed at 30 pM
T8 construct: bars A52-1, A31-2, A30-2) make A3 likely; not assigned here
Experimental: (§3) Solution-based equilibrium-binding assays using KinExA™ technology (Sapidyne Instruments, Inc.) were used to determine the dissociation equilibrium (KD) of activin A binding to antibody molecules. This solution-based assay is considered to be more sensitive than the BIAcore assay in some instances. Reacti-Gel™ 6× was pre-coated with about 50 μg/ml activin A overnight, and then blocked with BSA. 30 pM and 100 pM of antibody samples were incubated with various concentrations (0.5 pM to 5 nM) of activin A in sample buffer at room temperature for 8 hours before being run through the activin A-coated beads. The amount of the bead-bound antibody was quantified by fluorescent (Cy5) labeled goat anti-human-Fc antibody at 1 mg/ml in superblock. The binding signal was proportional to the concentration of free antibody at equilibrium with a given activin A concentration. KD was obtained from the nonlinear regression of the competition curves using a dual-curve one-site homogeneous binding model provided in the KinEx ATM software (Sapidyne Instruments, Inc.). […] A2 and A3 bound to activin A at ˜15 pM and ˜8 pM, respectively.

A31-2 [8] = molecular target: T8, A31-2; test: KinExA solution equilibrium, antibody A31 fixed at 100 pM
Experimental: as §3

[9] = molecular target: B1; test: KinExA solution equilibrium, antibody A1 (A52) fixed at 30 pM
Experimental: as §3

[10] = molecular target: T9, anti-activin A monoclonal antibody A2; test: KinExA solution equilibrium, antibody A2 (A30) fixed at 30 pM
T9 construct: Fully human antibody from XenoMouse hybridoma; also called L2H2
Experimental: as §3

[11] = molecular target: B1; test: KinExA solution equilibrium, antibody A1 (A52) fixed at 100 pM
Experimental: as §3

[12] = molecular target: T9, anti-activin A monoclonal antibody A2; test: KinExA solution equilibrium, antibody A2 (A30) fixed at 100 pM
Experimental: as §3

T9 sequence (VH, as listed by the source, chain 1 of 2): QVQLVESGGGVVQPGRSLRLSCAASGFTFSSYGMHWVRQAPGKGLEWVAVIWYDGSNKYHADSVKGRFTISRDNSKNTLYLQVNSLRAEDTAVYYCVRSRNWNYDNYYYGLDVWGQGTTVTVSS
T9 sequence (VL, as listed by the source, chain 2 of 2): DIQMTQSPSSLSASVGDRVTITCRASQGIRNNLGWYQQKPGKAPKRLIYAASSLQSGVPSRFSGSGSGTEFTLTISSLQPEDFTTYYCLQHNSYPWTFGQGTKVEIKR
T7 sequence (P01137 279-390 limits assumed): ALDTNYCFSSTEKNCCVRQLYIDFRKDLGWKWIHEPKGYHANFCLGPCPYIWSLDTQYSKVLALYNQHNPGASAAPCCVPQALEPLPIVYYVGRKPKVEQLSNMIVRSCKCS

Row | Binder | Cell IC50 (nM); luciferase activity of C2C12/pMARE reporter cells, activin A fixed at 4 nM [1] [nM] | binding result (BMP4) | binding result (GDF-8) | binding result (GDF-11) | binding result (TGF-β-1) | binding result (TGF-β-3) | binding result (activin B) | Kd [2] [pM] | EC50 [3] [nM] | EC50 [4] [nM] | EC50 [5] [nM] | binding result (A/B13-39) | EC50 [6] [nM] | IC50 (read off the curve) (A31-2 [7]) [pM] | IC50 (read off the curve) (A31-2 [8]) [pM] | IC50 (read off the curve) [9] [pM] | IC50 (read off the curve) [10] [pM] | IC50 (read off the curve) [11] [pM] | IC50 (read off the curve) [12] [pM]
1 | B1 | < 3 | no binding | no binding | no binding | no binding | no binding | no binding | ~3 | 0.29 | 0.29 | 0.29 | no binding (tested: 100 nM) | 0.29 |  |  |  |  |  | 
2 | B2 |  |  |  |  |  |  |  |  |  |  |  |  |  | ~30 | ~80 | ~20 | ~40 | ~70 | ~100
